Experimental data reported in paper PMC3838125, “Crystal Structure of Venezuelan Hemorrhagic Fever Virus Fusion Glycoprotein Reveals a Class 1 Postfusion Architecture with Extensive Glycosylation” (Journal of Virology, 2013).

Molecular target: the molecule itself
Test: crystal structure

B1: Guanarito virus (GTOV) fusion glycoprotein GP2, residues 292 to 418 (domain or fragment)
chain: DSEFCDMLRLFDFNKNAIEKLNNQTKTAVNMLTHSINSLISDNLLMRNKLKEILKVPYCNYTRFWYINHTKSGEHSLPRCWLVSNGSYLNESDFRNEWILESDHLIAEMLSKEYQDRQGKTPLTLVD
notes: also called GTOV GP2
stoichiometry N: 3
